Data taken from paper PMC11362559.
pKd: −log10 of the molar value.

Target: biotinylated I-A^b protein (SPR) (mouse)
Assay: SPR

pKd: 4.83
Substance: mLAG3^ΔL1 (Loop 1 deletion construct of mouse LAG3) (from UniProt Q61790) (receptor)
